Laboratory results taken from article PMC3463529.

Legend:
Assay in all cases: SEC; Superose12 10/300 GL, lysis buffer for native purification, 0.4 ml/min; concentrated Ni2+-NTA eluate of GFP-perlucin (~20 mg/ml); peak fractions analysed by SDS-PAGE; sizes estimated against gel filtration standards (12 kDa - 2 MDa)
[1] = molecular target: His-tagged GFP-perlucin derivative lacking 15 C-terminal amino acids (395 amino acids, 45 kDa) (Aequorea victoria | Haliotis laevigata) (UniProt P82596)
[2] = molecular target: full length His-tagged GFP-perlucin (410 amino acids, 46.8 kDa) (Aequorea victoria | Haliotis laevigata) (UniProt P82596)
[3] = molecular target: truncated His-tagged GFP-perlucin lacking 141 C-terminal amino acids (Aequorea victoria | Haliotis laevigata) (UniProt P82596)
[4] = molecular target: truncated His-tagged GFP-perlucin lacking 145 C-terminal amino acids (Aequorea victoria | Haliotis laevigata) (UniProt P82596)

Row | polypeptide chains in the complex (peak A, 395aa/410aa and truncated variants together) (polypeptide chains) [1] | polypeptide chains in the complex (peak A, 395aa/410aa and truncated variants together) (polypeptide chains) [2] | stoichiometry N (polypeptide chains) [3] | stoichiometry N (polypeptide chains) [4] | Substance
1 | 50 | 50 | 3 to 5 | – | truncated His-tagged GFP-perlucin lacking 141 C-terminal amino acids (from UniProt P82596 1-14)
2 | 50 | 50 | – | 3 to 5 | truncated His-tagged GFP-perlucin lacking 145 C-terminal amino acids (from UniProt P82596 1-10)
